EC50 data for four molecules are collected here from patent US20260000752A1 (AKSTON BIOSCIENCES, published 2026).

First the molecules themselves.
B1: human Fc(gamma)RIIIb (receptor)
chain: GMRTEDLPKAVVFLEPQWYSVLEKDSVTLKCQGAYSPEDNSTQWFHNENLISSQASSYFIDAATVNDSGEYRCQTNLSTLSDPVQLEVHIGWLLLQAPRWVFKEEDPIHLRCHSWKNTALHKVTYLQNGKDRKYFHHNSDFHIPKATLKDSGSYFCRGLVGSKNVSSETVNITITQGLAVSTIS
B2: recombinant human Fc(gamma)RI, biotinylated (R&D Systems) (receptor, UniProt P12314 16-288, looked up)
chain: QVDTTKAVITLQPPWVSVFQEETVTLHCEVLHLPGSSSTQWFLNGTATQTSTPSYRITSASVNDSGEYRCQRGLSGRSDPIQLEIHRGWLLLQVSSRVFTEGEPLALRCHAWKDKLVYNVLYYRNGKAFKFFHWNSNLTILKTNISHNGTYHCSGMGKHRYTSAGISVTVKELFPAPVLNASVTSPLLEGNLVTLSCETKLLLQRPGLQLYFSFYMGSKTLRGRNTSSEYQILTARREDSGLYWCEAATEDGNVLKRSPELELQVLGLQLPTP
B3: recombinant human Fc(gamma)RIIb, biotinylated (R&D Systems) (receptor)
chain: APPKAVLKLEPQWINVLQEDSVTLTCRGTHSPESDSIQWFHNGNLIPTHTQPSYRFKANNNDSGEYTCQTGQTSLSDPVHLTVLSEWLVLQTPHLEFQEGETIVLRCHSWKDKPLVKVTFFQNGKSKKFSRSDPNFSIPQANHSHSGDYHCTGNIGYTLYSSKPVTITVQAP
B4: recombinant human Fc(gamma)RIIa, biotinylated (R&D Systems) (receptor)
chain: AAPPKAVLKLEPPWINVLQEDSVTLTCQGARSPESDSIQWFHNGNLIPTHTQPSYRFKANNNDSGEYTCQTGQTSLSDPVHLTVLSEWLVLQTPHLEFQEGETIMLRCHSWKDKPLVKVTFFQNGKSQKFSHLDPTFSIPQANHSHSGDYHCTGNIGYTLFSSKPVTITVQVPSMGSSSPMGI

For the experiment, the target named is SARS-CoV-2-RBD-hIgG-Fc fusion protein of SEQ ID NO: 19.
The molecule B1 yielded an EC50 of 11.7 µg/mL.
In the case of B2 it was 0.0339 µg/mL; in that of B3, 2.05 µg/mL; in that of B4, 2.28 µg/mL.
